This is an account of results in PMC2605266.

Where only a bound is given, the exact number is not on record here.

Test [1] deals with T1, GST fused to the cytosolic domain of VAMP4 (human).
T1 sequence (O75379 whole entry, looked up): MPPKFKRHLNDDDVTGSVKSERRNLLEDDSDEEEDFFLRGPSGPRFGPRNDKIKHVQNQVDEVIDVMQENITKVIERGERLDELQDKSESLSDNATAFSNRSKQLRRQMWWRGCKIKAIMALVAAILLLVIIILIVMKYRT
Nature of the test: pull-down; 5 ug GST fusion protein immobilised on glutathione Sepharose, 5 ug His-tagged Munc18c in 500 ul, overnight at 4 C; binding buffer 150 mM potassium acetate, 1 mM MgCl2, 0.05% Tween 20, 20 mM HEPES pH 7.4; bound Munc18c detected by immunoblot.

Test [2] addresses T2, GST fused to the cytosolic domain of VAMP8 (human).
T2 sequence (Q9BV40 whole entry, looked up): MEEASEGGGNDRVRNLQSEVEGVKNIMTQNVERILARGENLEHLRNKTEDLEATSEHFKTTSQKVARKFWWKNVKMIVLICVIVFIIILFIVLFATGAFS
Described as above.

B1: Munc18c, N-terminal His6-fusion protein (natural protein)
chain: MAPPVSERGLKSVVWRKIKTAVFDDCRKEGEWKIMLLDEFTTKLLSSCCKMTDLLEEGITVIENIYKNREPVRQMKALYFISPTPKSVDCFLRDFGSKSEKKYKAAYIYFTDFCPDSLFNKIKASCSKSIRRCKEINISFIPQESQVYTLDVPDAFYYCYSPDPSNASRKEVVMEAMAEQIVTVCATLDENPGVRYKSKPLDNASKLAQLVEKKLEDYYKIDEKGLIKGKTQSQLLIIDRGFDPVSTVLHELTFQAMAYDLLPIENDTYKYKTDGKEKEAVLEEDDDLWVRVRHRHIAVVLEEIPKLMKEISSTKKATEGKTSLSALTQLMKKMPHFRKQISKQVVHLNLAEDCMNKFKLNIEKLCKTEQDLALGTDAEGQRVKDSMLVLLPVLLNKNHDNCDKIRAVLLYIFGINGTTEENLDRLIHNVKIEDDSDMIRNWSHLGVPIVPPSQQAKPLRKDRSAEETFQLSRWTPFIKDIMEDAIDNRLDSKEWPYCSRCPAVWNGSGAVSARQKPRTNYLELDRKNGSRLIIFVIGGITYSEMRCAYEVSQAHKSCEVIIGSTHILTPRKLLDDIKMLNKSKDKVSFKDE
Consider B1, for which the binding as percent of that observed for VAMP2 in test [1] and in test [2] was less than 14% in each case.
